Test system: Nc1nc2c(ncn2[C@@H]2O[C@H](COP(=O)(O)O)[C@@H](O)[C@H]2O)c(=O)[nH]1
Assay: Michaelis-Menten kinetics of guanylate kinase activity
Format: biochemical, murine
Details: other: Table X
Text: . […] Table X Kinetic Analysis of Fusion Proteins

murine guanylate kinase (gmk), wild-type (Mus musculus), sequence (chain, as listed by the source): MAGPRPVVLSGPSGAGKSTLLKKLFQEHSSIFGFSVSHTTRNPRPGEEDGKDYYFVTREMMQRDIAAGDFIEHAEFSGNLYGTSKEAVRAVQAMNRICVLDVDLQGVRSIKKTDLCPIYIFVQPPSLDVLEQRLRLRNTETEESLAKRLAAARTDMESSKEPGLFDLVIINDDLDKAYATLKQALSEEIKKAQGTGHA

In the case of “murine guanylate kinase (gmk), wild-type (Mus musculus)”, the Km is reported as 25 µM.

Source: patent EP1914304A1
